Molecular target: purified recombinant endophilin A1-SH3 (ITC and NMR) (UniProt O35179 291-352)
Assay: ITC

purified recombinant endophilin A1-SH3 (ITC and NMR), sequence (O35179 291-352): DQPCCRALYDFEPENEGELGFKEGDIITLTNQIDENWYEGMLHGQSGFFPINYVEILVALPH

Kd: ~30 µM
stoichiometry N: 1
B1: purified recombinant intersectin 1-SH3B (ITC and NMR) (domain or fragment)
chain: LQAQALYPWRAKKDNHLNFNKNDVITVLEQQDMWWFGEVQGQKGWFPKSYVKLIS

From PMC4328750 (EMBO Reports, 2014)
